# Measurements: publication PMC7496117, “A zinc finger protein BBX19 interacts with ABF3 to affect drought tolerance negatively in chrysanthemum”
# T1: GST-CmABF3 (Chrysanthemum morifolium, UniProt A0A7T8G3B9 1-415)
# T1 sequence: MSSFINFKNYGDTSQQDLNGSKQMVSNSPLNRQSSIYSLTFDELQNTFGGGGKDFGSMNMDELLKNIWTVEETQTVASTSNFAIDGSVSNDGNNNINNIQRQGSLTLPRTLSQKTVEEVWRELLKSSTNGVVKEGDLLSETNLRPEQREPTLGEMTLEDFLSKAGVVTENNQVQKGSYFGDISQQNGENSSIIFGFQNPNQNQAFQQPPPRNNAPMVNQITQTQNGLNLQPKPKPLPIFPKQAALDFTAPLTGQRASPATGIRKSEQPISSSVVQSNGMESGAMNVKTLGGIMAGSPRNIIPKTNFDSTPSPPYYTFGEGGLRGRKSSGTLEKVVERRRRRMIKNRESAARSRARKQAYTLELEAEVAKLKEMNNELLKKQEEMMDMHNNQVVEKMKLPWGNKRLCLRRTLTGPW
# B1: proRAB18-probe (CmRAB18 promoter, two ABRE motifs) (dsDNA)
# DNA 1: GAAATTAGACACGTACTTTTCAGTGATAACATAAACATACTTACGTGTTC
# DNA 2: GAACACGTAAGTATGTTTATGTTATCACTGAAAAGTACGTGTCTAATTTC
# Biological target: T1, GST-CmABF3
# Assay: EMSA; 3 ug protein; cold-probe competition 100-5000x, outcome only in gel; LightShift Chemiluminescent EMSA kit, 20 ul reaction, 3 ug protein; biotin probe 50 nM or 2 nM (Methods); buffer, salt, pH and temperature not stated
# Conditions: protein: recombinant; tags: GST (N-terminal, pGEX); chain copies: 2; blunt
binder,measurement,value
B1,binding result,binds
